Laboratory results reported in publication PMC3392941 (The Journal of Cell Biology, 2012).

Biological target: T1, Recombinant Myo2 CBD, Myo2(1,131–1,574) (S. cerevisiae, UniProt P19524 1131-1574)
T1 sequence: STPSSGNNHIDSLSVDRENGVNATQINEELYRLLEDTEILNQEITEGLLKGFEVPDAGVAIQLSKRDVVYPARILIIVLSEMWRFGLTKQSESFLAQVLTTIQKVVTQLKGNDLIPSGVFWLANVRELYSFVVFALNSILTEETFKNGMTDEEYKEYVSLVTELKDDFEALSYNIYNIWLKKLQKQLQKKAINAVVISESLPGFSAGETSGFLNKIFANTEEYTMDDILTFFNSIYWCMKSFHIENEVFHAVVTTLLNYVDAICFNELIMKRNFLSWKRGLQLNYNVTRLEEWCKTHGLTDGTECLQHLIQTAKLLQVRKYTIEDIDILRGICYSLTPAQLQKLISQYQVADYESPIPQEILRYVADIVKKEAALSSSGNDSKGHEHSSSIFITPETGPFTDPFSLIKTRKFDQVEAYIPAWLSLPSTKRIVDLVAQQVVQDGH
Experiment: SEC

PNEAPNDSPQSQSTRSSLGSFQPRPLKIIERQRLCMVTPSKPPKKS (domain or fragment) [MBP-Vac17(112–157)]
binding result: binds
